The chains are these.
B1: E42M, Q93D82 (parent)
chain: MSTAIVTNVKHFGGMGSALRLSEAGHTVACHDESFKQKDELEAFAETYPQLKPMSEQEPAELIEAVTSAYGQVDVLVSNDIFAPEFQPIDKYAVEDYRGAVEALQIRPFALVNAVASQMKKRKSGHIIFITSATPFGPWKELSTYTSARAGACTLANALSKELGEYNIPVFAIGPNYLHSEDSPYFYPTEPWKTNPEHVAHVKKVTALQRLGTQKELGELVAFLASGSCDYLTGQVFWLAGGFPMIERWPGMPE

In this data set the parent is B1. Particulars: Rhizobium radiobacter; pH 7.7; Thermal; CD; Phosphate 5mM; structure 1PWX; whole UniProt chain shown.

By Tm is commonly meant the temperature at the midpoint of the melting transition. For E42M, the Tm is 66.5 °C and the “change of melting temperature, mutant - wild type (higher = more stable)” value (from here on “change of melting temperature, mutant”) was found to be 1.5 °C.

For the variant H126Y, the midpoint of thermal melting (Tm) stood at 63.5 °C and the “change of melting temperature, mutant” value was -1.5 °C.

Regarding H126V, the Tm was found to be 64.5 °C and the “change of melting temperature, mutant” value is -0.5 °C.

Consider S2K, for which the Tm turned out to be 66 °C and the “change of melting temperature, mutant” value worked out at 1 °C.

On to S228R, for which the Tm came out at 64.5 °C and the “change of melting temperature, mutant” value is -0.5 °C.

Take S228K: the Tm came to 64.5 °C and the “change of melting temperature, mutant” value is -0.5 °C.

As for G99A, the Tm stood at 66 °C and the “change of melting temperature, mutant” value was found to be 1 °C.

In the case of G99H, the Tm was 65 °C and the “change of melting temperature, mutant” value is 0 °C.

Consider G99R, for which the Tm worked out at 55.5 °C and the “change of melting temperature, mutant” value was -9.5 °C.

On to G99D, for which the melting temperature (Tm) came out at 65 °C and the “change of melting temperature, mutant” value came to 0 °C.

As for K123H, the Tm stood at 65.5 °C and the “change of melting temperature, mutant” value came to 0.5 °C.

With Q87R, the Tm is 68.5 °C and the “change of melting temperature, mutant” value was 3.5 °C.

As for Q87L, the Tm amounted to 62.5 °C and the “change of melting temperature, mutant” value is -2.5 °C.

As to T213D, the Tm came to 62 °C and the “change of melting temperature, mutant” value is -3 °C.

For the variant T213N, the melting temperature (Tm) was 61.5 °C and the “change of melting temperature, mutant” value was -3.5 °C.

On to E190L, for which the Tm is 65.5 °C and the “change of melting temperature, mutant” value was found to be 0.5 °C.

As for E190T, the Tm turned out to be 66.5 °C and the “change of melting temperature, mutant” value was determined as 1.5 °C.

On to Q209H, for which the midpoint of thermal melting (Tm) was 58 °C and the “change of melting temperature, mutant” value is -7 °C.

For the variant T27L, the Tm is 65 °C and the “change of melting temperature, mutant” value stood at 0 °C.

As for T27M, the Tm turned out to be 65 °C and the “change of melting temperature, mutant” value is 0 °C.

On to T27V, for which the Tm was found to be 64.5 °C and the “change of melting temperature, mutant” value is -0.5 °C.

Take H198M: the Tm worked out at 55 °C and the “change of melting temperature, mutant” value is -10 °C.

In the case of H198Y, the Tm is 62.5 °C and the “change of melting temperature, mutant” value was -2.5 °C.

T134V: the melting temperature (Tm) is 68 °C and the “change of melting temperature, mutant” value stood at 3 °C.

With T134W, the Tm stood at 64 °C and the “change of melting temperature, mutant” value was -1 °C.

In the case of T134I, the Tm was 63.5 °C and the “change of melting temperature, mutant” value is -1.5 °C.

In the case of R98I, the Tm turned out to be 64.5 °C and the “change of melting temperature, mutant” value was -0.5 °C.

R98L: the Tm worked out at 65 °C and the “change of melting temperature, mutant” value amounted to 0 °C.

Y70F: the Tm was 65.5 °C and the “change of melting temperature, mutant” value was determined as 0.5 °C.

In the case of Y48F, the Tm was found to be 65.5 °C and the “change of melting temperature, mutant” value turned out to be 0.5 °C.

P253S: the Tm turned out to be 62.5 °C and the “change of melting temperature, mutant” value was -2.5 °C.

For the variant P253G, the Tm is 64.5 °C and the “change of melting temperature, mutant” value was -0.5 °C.

Turning to E85Y, the Tm stood at 64.5 °C and the “change of melting temperature, mutant” value is -0.5 °C.

On to V77I, for which the Tm is 64 °C and the “change of melting temperature, mutant” value was -1 °C.

H26M: the Tm worked out at 64.5 °C and the “change of melting temperature, mutant” value is -0.5 °C.

For N113Q, the Tm turned out to be 61.5 °C and the “change of melting temperature, mutant” value was -3.5 °C.

Regarding N113H, the midpoint of thermal melting (Tm) came out at 63 °C and the “change of melting temperature, mutant” value is -2 °C.

Regarding A29L, the Tm was determined as 68 °C and the “change of melting temperature, mutant” value amounted to 3 °C.

As for E197K, the midpoint of thermal melting (Tm) is 67.5 °C and the “change of melting temperature, mutant” value came to 2.5 °C.

L111W: the Tm was 57 °C and the “change of melting temperature, mutant” value is -8 °C.

As to E141Q, the Tm worked out at 56 °C and the “change of melting temperature, mutant” value was -9 °C.

In the case of A200Y, the Tm worked out at 62.5 °C and the “change of melting temperature, mutant” value was -2.5 °C.

On to P244A, for which the Tm turned out to be 67 °C and the “change of melting temperature, mutant” value amounted to 2 °C.

As to E247P, the Tm turned out to be 66 °C and the “change of melting temperature, mutant” value turned out to be 1 °C.

As for E247Y, the Tm was 63 °C and the “change of melting temperature, mutant” value was -2 °C.

As for K161F, the Tm was determined as 64 °C and the “change of melting temperature, mutant” value is -1 °C.

A158V: the Tm came to 71 °C and the “change of melting temperature, mutant” value stood at 6 °C.

Take E64A: the Tm was determined as 66 °C and the “change of melting temperature, mutant” value came to 1 °C.

Consider E64Q, for which the melting temperature (Tm) was found to be 66 °C and the “change of melting temperature, mutant” value was determined as 1 °C.

Turning to E64K, the Tm worked out at 65 °C and the “change of melting temperature, mutant” value amounted to 0 °C.

Turning to D96H, the midpoint of thermal melting (Tm) stood at 56 °C and the “change of melting temperature, mutant” value is -9 °C.

For the variant D39K, the Tm amounted to 66.5 °C and the “change of melting temperature, mutant” value stood at 1.5 °C.

With D39E, the midpoint of thermal melting (Tm) worked out at 65 °C and the “change of melting temperature, mutant” value was 0 °C.

Turning to C229A, the Tm was found to be 60.5 °C and the “change of melting temperature, mutant” value was -4.5 °C.

For S160A, the Tm is 64.5 °C and the “change of melting temperature, mutant” value was -0.5 °C.

As to E33P, the Tm was 64.5 °C and the “change of melting temperature, mutant” value was -0.5 °C.

On to V199K, for which the Tm turned out to be 66.5 °C and the “change of melting temperature, mutant” value is 1.5 °C.

Consider E219N, for which the midpoint of thermal melting (Tm) amounted to 63.5 °C and the “change of melting temperature, mutant” value was -1.5 °C.

Take A103Q: the Tm is 61 °C and the “change of melting temperature, mutant” value is -4 °C.

Regarding A103Y, the Tm was determined as 60.5 °C and the “change of melting temperature, mutant” value was -4.5 °C.

On to F136W, for which the midpoint of thermal melting (Tm) turned out to be 60.5 °C and the “change of melting temperature, mutant” value was -4.5 °C.

For the variant V75I, the Tm was 65 °C and the “change of melting temperature, mutant” value amounted to 0 °C.

Consider V236I, for which the melting temperature (Tm) stood at 66.5 °C and the “change of melting temperature, mutant” value was 1.5 °C.

As to D80E, the Tm amounted to 60 °C and the “change of melting temperature, mutant” value is -5 °C.

Regarding D80V, the Tm is 64 °C and the “change of melting temperature, mutant” value was -1 °C.

Regarding T47A, the midpoint of thermal melting (Tm) was found to be 63 °C and the “change of melting temperature, mutant” value is -2 °C.

Turning to T47H, the Tm amounted to 63.5 °C and the “change of melting temperature, mutant” value was -1.5 °C.

On to T47K, for which the Tm is 66 °C and the “change of melting temperature, mutant” value turned out to be 1 °C.

For the variant T47S, the Tm was found to be 64.5 °C and the “change of melting temperature, mutant” value is -0.5 °C.

The record behind these values is FireProtDB (doi:10.1093/protein/gzw068).
